Data from the RNAGym collection of RNA variant scans (doi:10.1093/molbev/msab373).

B1: Azoarcus group I ribozyme (parent)
chain: GUGCCUUGCGCCGGGAAACCACGCAAGGGAUGGUGUCAAAUUCGGCGAAACCUAAGCGCCCGCCCGGGCGUAUGGCAACGCCGAGCCAAGCUUCGGCGCCUGCGCCGAUGAAGGUGUAGAGACUAGACGGCACCCACCUAAGGCAAACGCUAUGGUGAAGGCAUAGUCCAGGGAGUGGCGAAAGUCACACAAACCGG

Variants of: B1
Test: reverse-splicing fitness (ratio to wild type); higher = more active; in vitro selection; Mg2+ level not given
Method in brief: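 An in vitro group I ribozyme library with randomized positions was T7-transcribed and gel-purified. In triplicate, 10 pmol RNA in EPPS pH 7.5 was reacted with 50 pmoles of a 30-nt RNA substrate for 1 h at 37 °C across several added MgCl2 levels (1–48 mM), then stopped with EDTA. Products were reverse transcribed from a substrate-complementary primer, PCR-amplified and sequenced (HiSeq 4000). Fitness is a variant's read proportion after selection over that before, normalised to wild type.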

For C82U A120C A145C C169U U176A, which reverse-splicing fitness is on record?
The reverse-splicing fitness was 0.0191.

With C82U A120C A145C C169U U176C as the variant, how does the reverse-splicing fitness read?
Its reverse-splicing fitness is 0.0127.

Which reverse-splicing fitness does the source give for C82U A120C A145C C169U U176G here?
The reverse-splicing fitness was 0.00368.

With C82U A111U C150U C169G U176C as the variant, how does the reverse-splicing fitness read?
Its reverse-splicing fitness is 0.0162.

Which reverse-splicing fitness does the source give for C82U A111U C150U C169G U176G here?
Its reverse-splicing fitness is 0.00639.

With C82U A111U C150U C169G U176A as the variant, how does the reverse-splicing fitness read?
Its reverse-splicing fitness is 0.013.

Which reverse-splicing fitness does the source give for C82U A111U U176A here?
Its reverse-splicing fitness is 0.107.

For C82U A111U U176C, which reverse-splicing fitness is on record?
The reverse-splicing fitness was 0.173.

With C82U A111U U176G as the variant, how does the reverse-splicing fitness read?
Its reverse-splicing fitness is 0.0233.

Which reverse-splicing fitness does the source give for C82U A111U C150G U176A here?
Its reverse-splicing fitness is 0.00833.

For C82U A111U C150G U176G, which reverse-splicing fitness is on record?
Its reverse-splicing fitness is 0.00369.

With C82U A111U C150G U176C as the variant, how does the reverse-splicing fitness read?
The reverse-splicing fitness was 0.0152.

Which reverse-splicing fitness does the source give for C82U A111U A145U U176C here?
The reverse-splicing fitness was 0.154.

For C82U A111U A145U U176A, which reverse-splicing fitness is on record?
The reverse-splicing fitness was 0.112.

Which reverse-splicing fitness does the source give for C82U A111U A145U U176G here?
Its reverse-splicing fitness is 0.0313.

Which reverse-splicing fitness does the source give for C82U A120C A145C C150A here?
Its reverse-splicing fitness is 0.0114.

With C82U A120C A145C C150G as the variant, how does the reverse-splicing fitness read?
The reverse-splicing fitness was 0.0204.

For C82U A120C A145C C150U, which reverse-splicing fitness is on record?
Its reverse-splicing fitness is 0.0393.

Which reverse-splicing fitness does the source give for C82U A111U C150G here?
The reverse-splicing fitness was 0.0213.

Which reverse-splicing fitness does the source give for C82U A111U C150A here?
The reverse-splicing fitness was 0.031.

For C82U A111U C150U, which reverse-splicing fitness is on record?
The reverse-splicing fitness was 0.157.

With C82U A120C A145C C150G U176C as the variant, how does the reverse-splicing fitness read?
The reverse-splicing fitness was 0.0126.

Which reverse-splicing fitness does the source give for C82U A120C A145C C150G U176A here?
The reverse-splicing fitness was 0.00639.

Which reverse-splicing fitness does the source give for C82U A120C A145C C150G U176G here?
Its reverse-splicing fitness is 0.00307.

With C82U A111U C150G C169G U176C as the variant, how does the reverse-splicing fitness read?
Its reverse-splicing fitness is 0.00452.

With C82U A111U C150G C169G U176A as the variant, how does the reverse-splicing fitness read?
The reverse-splicing fitness was 0.00711.

Which reverse-splicing fitness does the source give for C82U A111U C150G C169G U176G here?
The reverse-splicing fitness was 0.00532.

For C82U A120C A145C C150A C169G U176G, which reverse-splicing fitness is on record?
Its reverse-splicing fitness is 0.00448.

For C82U A120C A145C C150A C169G U176A, which reverse-splicing fitness is on record?
Its reverse-splicing fitness is 0.0162.

With C82U A120C A145C C150A C169G U176C as the variant, how does the reverse-splicing fitness read?
The reverse-splicing fitness was 0.00772.

Which reverse-splicing fitness does the source give for C82U A120C A145C C150G C169G U176C here?
Its reverse-splicing fitness is 0.00518.

For C82U A120C A145C C150G C169G U176G, which reverse-splicing fitness is on record?
The reverse-splicing fitness was 0.00305.

Which reverse-splicing fitness does the source give for C82U A120C A145C C150G C169G U176A here?
Its reverse-splicing fitness is 0.00773.

For C82U A120C A145C C150U C169A, which reverse-splicing fitness is on record?
Its reverse-splicing fitness is 0.00607.

Which reverse-splicing fitness does the source give for C82U A120C A145C C150U C169U here?
The reverse-splicing fitness was 0.0104.

For C82U A120C A145C C150U C169G, which reverse-splicing fitness is on record?
Its reverse-splicing fitness is 0.00596.

Which reverse-splicing fitness does the source give for C82U A111U C169G here?
The reverse-splicing fitness was 0.00886.

Which reverse-splicing fitness does the source give for C82U A111U C169A here?
Its reverse-splicing fitness is 0.00848.

Which reverse-splicing fitness does the source give for C82U A111U C169U here?
Its reverse-splicing fitness is 0.0122.

For C82U A111U A145U C169U, which reverse-splicing fitness is on record?
Its reverse-splicing fitness is 0.0106.

For C82U A111U A145U C169G, which reverse-splicing fitness is on record?
Its reverse-splicing fitness is 0.00791.

With C82U A111U A145U C169A as the variant, how does the reverse-splicing fitness read?
Its reverse-splicing fitness is 0.00706.

For C82U A120C A145C C150A C169U U176A, which reverse-splicing fitness is on record?
The reverse-splicing fitness was 0.0146.

For C82U A120C A145C C150A C169U U176C, which reverse-splicing fitness is on record?
Its reverse-splicing fitness is 0.00799.

With C82U A120C A145C C150A C169U U176G as the variant, how does the reverse-splicing fitness read?
Its reverse-splicing fitness is 0.00376.

For C82U A120C A145C, which reverse-splicing fitness is on record?
Its reverse-splicing fitness is 0.149.

For C82U A120C A145C C150U C169A U176A, which reverse-splicing fitness is on record?
Its reverse-splicing fitness is 0.00715.

With C82U A120C A145C C150U C169A U176C as the variant, how does the reverse-splicing fitness read?
Its reverse-splicing fitness is 0.00498.

For C82U A120C A145C C150U C169A U176G, which reverse-splicing fitness is on record?
Its reverse-splicing fitness is 0.00409.

For C82U A111U C150U C169A U176A, which reverse-splicing fitness is on record?
Its reverse-splicing fitness is 0.0138.

Which reverse-splicing fitness does the source give for C82U A111U C150U C169A U176G here?
Its reverse-splicing fitness is 0.00643.

For C82U A111U C150U C169A U176C, which reverse-splicing fitness is on record?
Its reverse-splicing fitness is 0.0125.

For C82U A111U A145U C169A U176G, which reverse-splicing fitness is on record?
Its reverse-splicing fitness is 0.00592.

Which reverse-splicing fitness does the source give for C82U A111U A145U C169A U176C here?
Its reverse-splicing fitness is 0.00904.

For C82U A111U A145U C169A U176A, which reverse-splicing fitness is on record?
The reverse-splicing fitness was 0.00935.

For C82U A120C A145C C150G C169U U176C, which reverse-splicing fitness is on record?
Its reverse-splicing fitness is 0.00991.

For C82U A120C A145C C150G C169U U176G, which reverse-splicing fitness is on record?
Its reverse-splicing fitness is 0.00403.

With C82U A120C A145C C150G C169U U176A as the variant, how does the reverse-splicing fitness read?
Its reverse-splicing fitness is 0.00992.

With C82U A120C as the variant, how does the reverse-splicing fitness read?
Its reverse-splicing fitness is 0.167.

Which reverse-splicing fitness does the source give for C82U A120C A145C C150G C169A U176A here?
Its reverse-splicing fitness is 0.00866.

For C82U A120C A145C C150G C169A U176G, which reverse-splicing fitness is on record?
Its reverse-splicing fitness is 0.00379.

Which reverse-splicing fitness does the source give for C82U A120C A145C C150G C169A U176C here?
Its reverse-splicing fitness is 0.0042.

For C82U A120C A145C C150U C169G U176C, which reverse-splicing fitness is on record?
The reverse-splicing fitness was 0.00645.

With C82U A120C A145C C150U C169G U176A as the variant, how does the reverse-splicing fitness read?
Its reverse-splicing fitness is 0.0142.

For C82U A120C A145C C150U C169G U176G, which reverse-splicing fitness is on record?
Its reverse-splicing fitness is 0.00398.

For C82U A111U C150A C169U, which reverse-splicing fitness is on record?
The reverse-splicing fitness was 0.0133.

For C82U A111U C150A C169G, which reverse-splicing fitness is on record?
The reverse-splicing fitness was 0.00941.

For C82U A111U C150A C169A, which reverse-splicing fitness is on record?
Its reverse-splicing fitness is 0.00982.

For C82U A111U C150G C169A U176C, which reverse-splicing fitness is on record?
Its reverse-splicing fitness is 0.00895.

With C82U A111U C150G C169A U176G as the variant, how does the reverse-splicing fitness read?
Its reverse-splicing fitness is 0.00774.

For C82U A111U C150G C169A U176A, which reverse-splicing fitness is on record?
Its reverse-splicing fitness is 0.00971.

Which reverse-splicing fitness does the source give for C82U A120C A145C C150A U176A here?
The reverse-splicing fitness was 0.00873.

For C82U A120C A145C C150A U176G, which reverse-splicing fitness is on record?
The reverse-splicing fitness was 0.00472.

With C82U A120C A145C C150A U176C as the variant, how does the reverse-splicing fitness read?
Its reverse-splicing fitness is 0.00962.

Which reverse-splicing fitness does the source give for C82U A111U C150A C169A U176A here?
The reverse-splicing fitness was 0.0195.

With C82U A111U C150A C169A U176G as the variant, how does the reverse-splicing fitness read?
The reverse-splicing fitness was 0.00696.

Which reverse-splicing fitness does the source give for C82U A111U C150A C169A U176C here?
Its reverse-splicing fitness is 0.0168.

For C82U A111U C169A U176G, which reverse-splicing fitness is on record?
Its reverse-splicing fitness is 0.00543.

Which reverse-splicing fitness does the source give for C82U A111U C169A U176C here?
The reverse-splicing fitness was 0.02.

With C82U A111U C169A U176A as the variant, how does the reverse-splicing fitness read?
Its reverse-splicing fitness is 0.0141.

With C82U A111U A145U C150G C169U as the variant, how does the reverse-splicing fitness read?
Its reverse-splicing fitness is 0.00858.

With C82U A120C A145C C150A C169U as the variant, how does the reverse-splicing fitness read?
Its reverse-splicing fitness is 0.00777.

With C82U A120C A145C C150A C169G as the variant, how does the reverse-splicing fitness read?
The reverse-splicing fitness was 0.00551.
